# According to article PMC5089669, “Biocatalytic Properties and Structural Analysis of Eugenol Oxidase from Rhodococcus jostii RHA1: A Versatile Oxidative Biocatalyst” (Chembiochem, 2016):
# Substrate: C=CCc1cc(OC)c(O)c(OC)c1
# Assay: purified protein
# Assay type: biochemical, Rhodococcus jostii
# Settings: Tris-HCl 50 mM, pH 7.5, 25 °C, O2 as co-substrate
protein,measurement,value
"Eugenol oxidase (EUGO) (Rhodococcus jostii RHA1) (protein, homodimer) MTRTLPPGVSDERFDAALQRFRDVVGDKWVLSTADELEAFRDPYPVGAAEANLPSAVVSPESTEQVQDIVRIANEYGIPLSPVSTGKNNGYGGAAPRLSGSVIVKTGERMNRILEVNEKYGYALLEPGVTYFDLYEYLQSHDSGLMLDCPDLGWGSVVGNTLDRGVGYTPYGDHFMWQTGLEVVLPQGEVMRTGMGALPGSDAWQLFPYGFGPFPDGMFTQSNLGIVTKMGIALMQRPPASQSFLITFDKEEDLEQIVDIMLPLRINMAPLQNVPVLRNIFMDAAAVSKRTEWFDGDGPMPAEAIERMKKDLDLGFWNFYGTLYGPPPLIEMYYGMIKEAFGKIPGARFFTHEERDDRGGHVLQDRHKINNGIPSLDELQLLDWVPNGGHIGFSPVSAPDGREAMKQFEMVRNRANEYNKDYAAQFIIGLREMHHVCLFIYDTAIPEAREEILQMTKVLVREAAEAGYGEYRTHNALMDDVMATFNWGDGALLKFHEKIKDALDPNGIIAPGKSGIWSQRFRGQNL",Km,0.8 µM
same,kcat,0.49 s⁻¹
